Measurements as given in article PMC12858348, “Structural basis underlying the autoinhibition of the formin FHOD1 and its phosphorylation-dependent activation” (The Journal of Biological Chemistry, 2025).

B1: His-tagged FHOD1-N3 (1–360) [human] / GST-fused FHOD1–DAD (1081–1145) [human] (parent complex)
chain 1: MAGGEDRGDGEPVSVVTVRVQYLEDTDPFACANFPEPRRAPTCSLDGALPLGAQIPAVHRLLGAPLKLEDCALQVSPSGYYLDTELSLEEQREMLEGFYEEISKGRKPTLILRTQLSVRVNAILEKLYSSSGPELRRSLFSLKQIFQEDKDLVPEFVHSEGLSCLIRVGAAADHNYQSYILRALGQLMLFVDGMLGVVAHSDTIQWLYTLCASLSRLVVKTALKLLLVFVEYSENNAPLFIRAVNSVASTTGAPPWANLVSILEEKNGADPELLVYTVTLINKTLAALPDQDSFYDVTDALEQQGMEALVQRHLGTAGTDVDLRTQLVLYENALKLEDGDIEEAPGAGGRRERRKPSSEE
chain 2: MPTVGPSTASPEEPPGSSLPSDTSDEIMDLLVQSVTKSSPRALAARERKRSRGNRKSLRRTLKSG

Variants of: B1
Experiment: GST pull-down, SDS-PAGE, CBB staining, band quantification; parent: 100; read off a plot

| Variant | percent of parent [%] |
| --- | --- |
| chain 2 MPTVGPSTASPEEPPGSSLPSDTSDEIMDLLVQSVTKSSPRALAARERKRDRGNRKDLRRDLKSG [chain 2 S51D, chain 2 S57D, chain 2 T61D] | ~6 |
| chain 2 MPTVGPSTASPEEPPGSSLPSDTSDEIMDLLVQSVTKSSPRALAARERKRSRGNRKSLERTLKSG [chain 2 R59E] | ~18 |
| chain 2 MPTVGPSTASPEEPPGSSLPSDTSDEIMDLLVQSVTKSSPRALAAREDKRSRGNRKSLRRTLKSG [chain 2 R48D] | ~26 |
| chain 2 MPTVGPSTASPEEPPGSSLPSDTSDEIMDLLVQSVTKSSPRALAARERKRSRGNDKSLRRTLKSG [chain 2 R55D] | ~16 |

Variants of: B1
Experiment: as above
Remark: another data set of the same source

| Variant | percent of parent [%] |
| --- | --- |
| chain 1 MAGGEDRGDGEPVSVVTVRVQYLEDTDPFACANFPEPRRAPTCSLDGALPLGAQIPAVHRLLGAPLKLEDCALQVSPSGYYLDTELSLEEQREMLEGFYEEISKGRKPTLILRTQLSVRVNAILEKLYSSSGPELRRSLFSLKQIFQEDKDLVPEFVHSEGLSCLIRVGAAADHNYQSYILRALGQLMLFVDGMLGVVAHSDTIQWLYTLCASLSRLVVKTALKLLLVFVEYSENNAPLFIRAVNSVASTTGAPPWANLVSILEEKNGADPELLVYTVTLINKTLAALPDQDSFYRVTDALEQQGMEALVQRHLGTAGTDVDLRTQLVLYENALKLEDGDIEEAPGAGGRRERRKPSSEE [chain 1 D296R] | ~66 |
| chain 1 MAGGEDRGDGEPVSVVTVRVQYLEDTDPFACANFPEPRRAPTCSLDGALPLGAQIPAVHRLLGAPLKLEDCALQVSPSGYYLDTELSLEEQREMLEGFYEEISKGRKPTLILRTQLSVRVNAILEKLYSSSGPELRRSLFSLKQIFQEDKDLVPEFVHSEGLSCLIRVGAAADHNYQSYILRALGQLMLFVDGMLGVVAHSDTIQWLYTLCASLSRLVVKTALKLLLVFVEYSENNAPLFIRAVNSVASTTGAPPWANLVSILEEKNGADPELLVYTVTLINKTLAALPRQDSFYDVTDALEQQGMEALVQRHLGTAGTDVDLRTQLVLYENALKLEDGDIEEAPGAGGRRERRKPSSEE [chain 1 D290R] | ~52 |
| chain 1 MAGGEDRGDGEPVSVVTVRVQYLEDTDPFACANFPEPRRAPTCSLDGALPLGAQIPAVHRLLGAPLKLEDCALQVSPSGYYLDTELSLEEQREMLEGFYEEISKGRKPTLILRTQLSVRVNAILEKLYSSSGPELRRSLFSLKQIFQEDKDLVPEFVHSEGLSCLIRVGAAADHNYQSYILRALGQLMLFVDGMLGVVAHSDTIQWLYTLCASLSRLVVKTALKLLLVFVEYSENNAPLFIRAVNSVASTTGAPPWANLVSILEEKNGADPELLVYTVTLINKTLAALPDQDSFYDVTDALEQQGMEALVQRHLGTAGTDVDLRTQLVLYANALKLEDGDIEEAPGAGGRRERRKPSSEE [chain 1 E331A] | ~28 |
| chain 1 MAGGEDRGDGEPVSVVTVRVQYLEDTDPFACANFPEPRRAPTCSLDGALPLGAQIPAVHRLLGAPLKLEDCALQVSPSGYYLDTELSLEEQREMLEGFYEEISKGRKPTLILRTQLSVRVNAILEKLYSSSGPELRRSLFSLKQIFQEDKDLVPEFVHSEGLSCLIRVGAAADHNYQSYILRALGQLMLFVDGMLGVVAHSDTIQWLYTLCASLSRLVVKTALKLLLVFVEYSENNAPLFIRAVNSVASTTGAPPWANLVSILEEKNGADPELLVYTVTLINKTLAALPDQRSFYDVTDALEQQGMEALVQRHLGTAGTDVDLRTQLVLYENALKLEDGDIEEAPGAGGRRERRKPSSEE [chain 1 D292R] | ~66 |

Variants of: B1
Experiment: as above
Remark: another data set of the same source

| Variant | percent of parent [%] |
| --- | --- |
| chain 2 MPTVGPSTASPEEPPGSSLPSDTSDEIMDLAVQSVTKSSPRALAARERKRSRGNRKSLRRTLKSG [chain 2 L31A] | ~97 |
| chain 2 MPTVGPSTASPEEPPGSSLPSDTSDEIMDLLAQSVTKSSPRALAARERKRSRGNRKSLRRTLKSG [chain 2 V32A] | ~95 |
| chain 2 MPTVGPSTASPEEPPGSSLPSDTSDEIADLLVQSVTKSSPRALAARERKRSRGNRKSLRRTLKSG [chain 2 M28A] | ~97 |
| chain 2 MPTVGPSTASPEEPPGSSLPSDTSDEIMDLLVQSATKSSPRALAARERKRSRGNRKSLRRTLKSG [chain 2 V35A] | ~96 |
